From US11021532 (CENTIVAX, dated 2021)

B1: COVID19_P24_C01 (scFv, V domains shown)
VH: QVQLVQSGAEVKKPGASVKVSCKASGYTFTRYYIHWVRQAPGQGLEWMGIINPSGGSTTYAQKFQGRVTMTRDTSTSTVYMELSSLRSEDTAVYYCAKGAPHDYIWGSYRPDAFDIWGQGTMVTVSS
VL: DIQMTQSPSSLSASVGDRVTITCRASENIDSWLAWYQQKPGKAPKLLIYEASTLESGVPSRFSGSGSGTDFTLTISSLQPEDFATYYCHQYLSSPETFGQGTKVEIKR
B2: COVID19_P24_G06 (scFv, V domains shown)
VH: QVQLVQSGAEVKKPGASVKVSCKASGYTFTNYGISWVRQAPGQGLEWMGWISARNGNTNYAQKFQGRVTMTRDTSTSTVYMELSSLRSEDTAVYYCTTDPVLEWFGYSIWGQGTMVTVSS
VL: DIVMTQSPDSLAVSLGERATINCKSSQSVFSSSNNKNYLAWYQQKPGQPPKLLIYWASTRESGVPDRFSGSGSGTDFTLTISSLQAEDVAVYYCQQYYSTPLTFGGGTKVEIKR
B3: COVID19_P23_G11 (scFv, V domains shown)
VH: QVQLVQSGAEVKKPGASVKVSCKASGGTFRSTAISWVRQAPGQGLEWMGWMNPNSGNTGYAQKFQGRVTMTRDTSTSTVYMELSSLRSEDTAVYYCARAGYSSSSGYYYYGMDVWGKGTTVTVSS
VL: DIQMTQSPSSLSASVGDRVTITCRASQGISNNLNWYQQKPGKAPKLLIYAASSLQSGVPSRFSGSGSGTDFTLTISSLQPEDFATYYCQQYDTFPLTFGQGTKVEIKR
B4: COVID19_P23_G12 (scFv, V domains shown)
VH: QVQLVQSGAEVKKPGASVKVSCKASGYIFTSYPIHWVRQAPGQGLEWMGWMNPNSGNTGYAQKFQGRVTMTRDTSTSTVYMELSSLRSEDTAVYYCARDRGSYDTDAFDIWGQGTMVTVSS
VL: DIQMTQSPSSLSASVGDRVTITCRASQDISNYLNWYQQKPGKAPKLLIYAASNLQSGVPSRFSGSGSGTDFTLTISSLQPEDFATYYCQQANSFPSTFGQGTKLEIKR
B5: COVID19_P24_D08 (scFv, V domains shown)
VH: QVQLVQSGAEVKKPGASVKVSCKASGYTFTSYDINWVRQAPGQGLEWMGIIDPSGGSTSYAQKFQGRVTMTRDTSTSTVYMELSSLRSEDTAVYYCATVTPGYGMDVWGQGTTVTVSS
VL: DIQMTQSPSSLSASVGDRVTITCRASQTIYSYLNWYQQKPGKAPKLLIYDASNLETGVPSRFSGSGSGTDFTLTISSLQPEDFATYYCQQAISFPLTFGGGTKLEIKR

Legend:
[1] = molecular target: SARS CoV-2 spike protein on pseudovirus (SARS-CoV-2, UniProt P0DTC2 14-1273); assay: cell-based or functional assay
[2] = molecular target: T1, SARS-CoV-2 Receptor Binding Domain (RBD) protein (SARS-CoV-2); assay: SPR (Carterra LSA), scFv captured via anti-V5, RBD as analyte, 1:1 fit
[3] = molecular target: T1, SARS-CoV-2 Receptor Binding Domain …; assay: SPR (Carterra LSA), scFv captured via anti-V5, RBD as analyte

Binder	IC50 [µg/mL] pseudotyped lenti neut [1] [µg/mL]	Kd [2] [nM]	Kd [3] [nM]
B1	0.92	–	–
B2	0.16	–	–
B3	0.26	–	–
B4	15.9	0.37	< 50
B5	17	–	–
